This assay is described as follows: Epididymal fat weight and body weight, lactoferrin vs trivalent chromium vs combination (Test Example 5). The settings on record: fed 7 weeks; for Body weight / Epididymal fat weight: high-fat diet. The assay is classed as in vivo, C57BL/6JNarl mice. The protocol:
The C57BL/6JNarl mice (N=70) are fed with a mouse diet (high-fat Rodent TestDiet, PMI Nutrition International Inc., MO, U.S.A.; 67% of calories provided by fat). The C57BL/6JNarl mice are randomly divided into seven groups and there are ten mice in each group. In one experimental group, the mice are fed with the mouse diet mixed with lactoferrin (NZMP lactoferrin, New Zealand, low dose: 40 mg/kg BW/day, high dose: 80 mg/kg BW/day). In another experimental group, the mice are fed with the mouse diet mixed with trivalent chromium (chromium (III) chloride hexahydrate, low dose: 40 μg/kg BW/day Cr^3+, high dose: 80 μg/kg BW/day Cr^3+). In yet another experimental group, the mice are fed with the mouse diet mixed with a lactoferrin/trivalent chromium composition (low dose: lactoferrin of 40 mg/kg BW/day with Cr^3+ of 40 μg/kg BW/day, high dose: lactoferrin of 80 mg/kg BW/day with Cr^3+ of 80 μg/kg BW/day). In the control group, the mice are fed with the mouse diet containing no other additive. The C57BL/6JNarl mice aged 8 weeks are fed for 7 weeks and then sacrificed to measure the weight of Epididymal fat and body weight, as shown in Table 5.
Accordingly, it can be known that the lactoferrin/trivalent chromium composition provides more significant efficiency in comparison to single lactoferrin or trivalent chromium.

Where [1] appears, read: High dose (lactoferrin 80 mg/kg BW/day and/or Cr3+ 80 μg/kg BW/day).
Setting [2] is: Low dose (lactoferrin 40 mg/kg BW/day and/or Cr3+ 40 μg/kg BW/day).

Data on one molecule can be found in patent US20100009014A1, “Use of composition for manufacture of medicant and method for inhibiting formation of body fat” (Maxluck Biotechnology Corp., priority 2008, published 2010).

B1: Lactoferrin: NZMP lactoferrin, New Zealand; glycoprotein capable of binding metal ions, given alone as comparison (protein, UniProt P24627 20-708, looked up)
Lactotransferrin: APRKNVRWCTISQPEWFKCRRWQWRMKKLGAPSITCVRRAFALECIRAIAEKKADAVTLDGGMVFEAGRDPYKLRPVAAEIYGTKESPQTHYYAVAVVKKGSNFQLDQLQGRKSCHTGLGRSAGWIIPMGILRPYLSWTESLEPLQGAVAKFFSASCVPCIDRQAYPNLCQLCKGEGENQCACSSREPYFGYSGAFKCLQDGAGDVAFVKETTVFENLPEKADRDQYELLCLNNSRAPVDAFKECHLAQVPSHAVVARSVDGKEDLIWKLLSKAQEKFGKNKSRSFQLFGSPPGQRDLLFKDSALGFLRIPSKVDSALYLGSRYLTTLKNLRETAEEVKARYTRVVWCAVGPEEQKKCQQWSQQSGQNVTCATASTTDDCIVLVLKGEADALNLDGGYIYTAGKCGLVPVLAENRKSSKHSSLDCVLRPTEGYLAVAVVKKANEGLTWNSLKDKKSCHTAVDRTAGWNIPMGLIVNQTGSCAFDEFFSQSCAPGADPKSRLCALCAGDDQGLDKCVPNSKEKYYGYTGAFRCLAEDVGDVAFVKNDTVWENTNGESTADWAKNLNREDFRLLCLDGTRKPVTEAQSCHLAVAPNHAVVSRSDRAAHVKQVLLHQQALFGKNGKNCPDKFCLFKSETKNLLFNDNTECLAKLGGRPTYEEYLGTEYVTAIANLKKCSTSPLLEACAFLTR
B1: the “Epididymal fat weight and body weight vs control group (in words)” value is on record as “cannot achieve significant efficiency”. In addition, under setting [1], the Body weight was 27.9 ± 1.37 g and the Epididymal fat weight was found to be 0.82 ± 0.2 g. Besides, under setting [2], the Body weight was 27.7 ± 2.19 g and the Epididymal fat weight was found to be 0.72 ± 0.28 g.
